From patent EP4628097A1 (Innovent Biologics (Suzhou) Co., Ltd., dated 2025)

Experiments:
human VEGF165 [1] = target: T1, human VEGF165 (human, UniProt P15692-4 27-191); experiment: ELISA, relative binding activity; final formula 40 mg/mL, 25 C, 1M
T1 construct: all are put under this molecule; also called VEGF A; VEGFA

human Ang2 [2] = target: T2, human Ang2 (human, UniProt O15123 19-496, limits assumed); experiment: as above
T2 construct: Bought proteins; also called hAng2-biotin; Ang2-Bio (Sino)
T2 sequence (looked up): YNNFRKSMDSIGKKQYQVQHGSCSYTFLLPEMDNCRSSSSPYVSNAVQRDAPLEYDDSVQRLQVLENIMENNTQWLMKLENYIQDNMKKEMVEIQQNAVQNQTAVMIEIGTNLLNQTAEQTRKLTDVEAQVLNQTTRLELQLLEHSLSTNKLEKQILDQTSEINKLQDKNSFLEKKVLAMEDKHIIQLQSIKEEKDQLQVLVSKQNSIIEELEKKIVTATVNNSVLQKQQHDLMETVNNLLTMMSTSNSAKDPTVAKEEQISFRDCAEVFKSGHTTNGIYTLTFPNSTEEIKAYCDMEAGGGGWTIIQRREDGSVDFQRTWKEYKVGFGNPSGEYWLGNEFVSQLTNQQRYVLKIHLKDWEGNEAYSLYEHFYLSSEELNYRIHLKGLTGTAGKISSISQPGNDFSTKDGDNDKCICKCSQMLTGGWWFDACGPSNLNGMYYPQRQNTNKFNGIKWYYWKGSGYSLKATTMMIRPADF

human VEGF165 [3] = target: T1, human VEGF165; experiment: ELISA, relative binding activity; IEX04-012 about 40 mg/mL in F1, 40 C, 0 weeks
human Ang2 [4] = target: T2, human Ang2; experiment: as above
human VEGF165 [5] = target: T1, human VEGF165; experiment: ELISA, relative binding activity; IEX04-012 about 40 mg/mL in F1, 40 C, 2 weeks
human Ang2 [6] = target: T2, human Ang2; experiment: as above
human VEGF165 [7] = target: T1, human VEGF165; experiment: ELISA, relative binding activity; IEX04-012 about 40 mg/mL in F10, 40 C, 2 weeks
human Ang2 [8] = target: T2, human Ang2; experiment: as above
human VEGF165 [9] = target: T1, human VEGF165; experiment: ELISA, relative binding activity; final formula 40 mg/mL, 25 C, 3M
human Ang2 [10] = target: T2, human Ang2; experiment: as above
human Ang2 [11] = target: T2, human Ang2; experiment: ELISA, relative binding activity; IEX04-012 about 40 mg/mL in F6, 40 C, 0 weeks
human VEGF165 [12] = target: T1, human VEGF165; experiment: ELISA, relative binding activity; IEX04-012 about 40 mg/mL in F5, 40 C, 1 week
human Ang2 [13] = target: T2, human Ang2; experiment: as above
human VEGF165 [14] = target: T1, human VEGF165; experiment: ELISA, relative binding activity; IEX04-012 about 40 mg/mL in F1, 40 C, 1 week
human Ang2 [15] = target: T2, human Ang2; experiment: as above
human VEGF165 [16] = target: T1, human VEGF165; experiment: ELISA, relative binding activity; 120 mg/mL formula, T0
human Ang2 [17] = target: T2, human Ang2; experiment: as above
human VEGF165 [18] = target: T1, human VEGF165; experiment: ELISA, relative binding activity; IEX04-012 about 40 mg/mL in F2, 40 C, 0 weeks
human Ang2 [19] = target: T2, human Ang2; experiment: as above
human VEGF165 [20] = target: T1, human VEGF165; experiment: ELISA, relative binding activity; IEX04-012 about 40 mg/mL in F7, 40 C, 1 week
human Ang2 [21] = target: T2, human Ang2; experiment: as above
human VEGF165 [22] = target: T1, human VEGF165; experiment: ELISA, relative binding activity; IEX04-012 about 40 mg/mL in F9, 40 C, 1 week
human Ang2 [23] = target: T2, human Ang2; experiment: as above
human VEGF165 [24] = target: T1, human VEGF165; experiment: ELISA, relative binding activity; 120 mg/mL formula, 25 C, 2M
human Ang2 [25] = target: T2, human Ang2; experiment: as above

T1 sequence (P15692 other isoform, or with tags, fused parts or gaps limits assumed): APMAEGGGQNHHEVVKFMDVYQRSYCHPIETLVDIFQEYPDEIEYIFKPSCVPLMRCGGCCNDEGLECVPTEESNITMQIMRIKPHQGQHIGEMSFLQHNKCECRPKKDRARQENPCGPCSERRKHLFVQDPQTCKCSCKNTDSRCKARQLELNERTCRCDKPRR

B1: IEX04-012 (bispecific antibody)
chain: DIQLTQSPSSLSASVGDRVTITCSASQDISNYLNWYQQKPGKAPKVLIYFTSSLHSGVPSRFSGSGSGTDFTLTISSLQPEDFATYYCQQYSTVPWTFGCGTKVEIKGGGGSGGGGSGGGGSGGGGSEVQLVESGGGLVQPGGSLRLSCAASGYDFTHYGMNWVRQAPGKCLEWVGWINTYTGEPTYAADFKRRFTFSLDTSKSTAYLQMNSLRAEDTAVYYCAKYPYYYGTSHWYFDVWGQGTLVTVSSGGGGSGGGGSGGGGSEVQLLESGGGLVQPGGSLRLSCAASGFALDYYAIGWFRQAPGKGLEGVSCISSGEGSTYYADSVKGRFTISRDNSKNTVYLQMNSLRAEDTAVYYCATDSRGDDVACEGLRRNEYDYWGQGTLVTVSS
Relative binding Activity to VEGF A (ELISA, %) (human VEGF165 [1]): 98% | Relative binding Activity to Ang2 (ELISA, %) (human Ang2 [2]): 93% | Relative binding Activity to VEGF (ELISA, %) (human VEGF165 [3]): 100% | Relative binding Activity to Ang2 (ELISA, %) (human Ang2 [4]): 100% | Relative binding Activity to VEGF (ELISA, %) (human VEGF165 [5]): 101% | Relative binding Activity to Ang2 (ELISA, %) (human Ang2 [6]): 100% | Relative binding Activity to VEGF (ELISA, %) (human VEGF165 [7]): 99% | Relative binding Activity to Ang2 (ELISA, %) (human Ang2 [8]): 99% | Relative binding Activity to VEGF A (ELISA, %) (human VEGF165 [9]): 96% | Relative binding Activity to Ang2 (ELISA, %) (human Ang2 [10]): 85% | Relative binding Activity to Ang2 (ELISA, %) (human Ang2 [11]): 100% | Relative binding Activity to VEGF (ELISA, %) (human VEGF165 [12]): 98% | Relative binding Activity to Ang2 (ELISA, %) (human Ang2 [13]): 82% | Relative binding Activity to VEGF (ELISA, %) (human VEGF165 [14]): 98% | Relative binding Activity to Ang2 (ELISA, %) (human Ang2 [15]): 103% | Relative binding Activity to VEGF A (ELISA, %) (human VEGF165 [16]): 101% | Relative binding Activity to Ang2 (ELISA, %) (human Ang2 [17]): 92% | Relative binding Activity to VEGF (ELISA, %) (human VEGF165 [18]): 100% | Relative binding Activity to Ang2 (ELISA, %) (human Ang2 [19]): 100% | Relative binding Activity to VEGF (ELISA, %) (human VEGF165 [20]): 102% | Relative binding Activity to Ang2 (ELISA, %) (human Ang2 [21]): 90% | Relative binding Activity to VEGF (ELISA, %) (human VEGF165 [22]): 97% | Relative binding Activity to Ang2 (ELISA, %) (human Ang2 [23]): 96% | Relative binding Activity to VEGF A (ELISA, %) (human VEGF165 [24]): 92% | Relative binding Activity to Ang2 (ELISA, %) (human Ang2 [25]): 84%
